The experiment concerns the target GFP-profilin-1 (UniProt P07737). As to the kind of experiment: co-immunoprecipitation, densitometric analysis of immunoblots. Particulars: HEK293 cells; cell lysate (1 mg); three independent experiments; parent: est. 6.8; read off a plot. In general terms: Immunoblotting shows a protein as a band on a membrane.

Chain of 3×FLAG-CLIC4 WT, Q9Y696 C35A (Q9Y696 whole entry C35A): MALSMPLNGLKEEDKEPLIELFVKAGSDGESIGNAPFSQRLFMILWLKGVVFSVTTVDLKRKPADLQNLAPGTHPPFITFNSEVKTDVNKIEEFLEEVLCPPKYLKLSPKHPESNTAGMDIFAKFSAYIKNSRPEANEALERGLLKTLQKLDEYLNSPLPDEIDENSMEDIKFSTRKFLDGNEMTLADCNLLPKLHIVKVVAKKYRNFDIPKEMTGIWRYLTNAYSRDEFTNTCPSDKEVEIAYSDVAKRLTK
Chain of GFP-profilin-1 (P07737 2-140): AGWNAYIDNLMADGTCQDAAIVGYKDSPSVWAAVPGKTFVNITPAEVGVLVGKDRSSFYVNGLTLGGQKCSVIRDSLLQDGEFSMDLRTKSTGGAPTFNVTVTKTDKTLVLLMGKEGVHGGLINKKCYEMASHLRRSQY

As for 3×FLAG-CLIC4 WT, Q9Y696 C35A, the response came out at 2 A.U.

(Values after publication PMC6302171.)
